Where two headings read alike, the source gives them in different places.
Columns and labels:
human HA-UBE2J1 = target: T1, human HA-UBE2J1 (human, UniProt Q9Y385 1-318); experiment: co-IP; HEK293 cells co-transfected with FLAG-tagged E3 and HA-tagged E2; lysed by sonication in Pierce IP buffer (25 mM Tris-HCl pH 7.4, 150 mM NaCl, 1 mM EDTA, 1% NP-40, 5% glycerol); anti-HA magnetic beads, 4 C, 1 h; washed with IP buffer with 2 mM DTT; immunoblot with anti-FLAG; band intensities by ImageJ (IP lane to input lane)
T1 construct: E2 ubiquitin-conjugating enzyme UBE2J1, human, full-length open reading frame; also called pCAG-humanUBE2J1; source: HEK293 cells, transfected (pCAG1.1, Lipofectamine 3000), in lysate; not shown: HA, N-terminal, kept
T1 sequence (looked up): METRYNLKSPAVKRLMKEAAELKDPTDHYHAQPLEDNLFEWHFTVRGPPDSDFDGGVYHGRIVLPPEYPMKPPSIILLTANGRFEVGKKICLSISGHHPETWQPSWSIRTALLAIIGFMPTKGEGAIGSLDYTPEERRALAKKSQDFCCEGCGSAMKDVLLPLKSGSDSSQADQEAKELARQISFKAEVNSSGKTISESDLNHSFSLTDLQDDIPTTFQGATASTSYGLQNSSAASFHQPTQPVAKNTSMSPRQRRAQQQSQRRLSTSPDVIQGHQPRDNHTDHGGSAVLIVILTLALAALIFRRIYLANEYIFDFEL

mouse HA-UBE2J1 = target: T2, mouse HA-UBE2J1 (mouse, UniProt Q9JJZ4 1-318); experiment: as above; conditions: partners not purified
T2 construct: E2 ubiquitin-conjugating enzyme UBE2J1, mouse, full-length open reading frame; also called pCAG-mouseUbe2J1; source: HEK293 cells, transfected (pCAG1.1, Lipofectamine 3000), in lysate; not shown: HA, N-terminal, kept
T2 sequence (looked up): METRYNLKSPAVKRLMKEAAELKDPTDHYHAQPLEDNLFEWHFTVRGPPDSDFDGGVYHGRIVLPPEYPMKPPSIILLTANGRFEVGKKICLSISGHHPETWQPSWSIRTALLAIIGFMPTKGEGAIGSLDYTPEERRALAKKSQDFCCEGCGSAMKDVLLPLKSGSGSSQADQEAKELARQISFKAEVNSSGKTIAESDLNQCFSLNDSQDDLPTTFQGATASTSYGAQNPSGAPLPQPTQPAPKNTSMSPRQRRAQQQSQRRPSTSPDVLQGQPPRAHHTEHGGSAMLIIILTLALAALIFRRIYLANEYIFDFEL

Question: For “human RNF133-mutant-FLAG (RING finger domain deleted) (from UniProt Q8WVZ7 1-376) (enzyme)”, which IP:input ratio (band intensity) (human HA-UBE2J1) is on record?
Answer: Its IP:input ratio (band intensity) is 0.24.

B1: human RNF133-FLAG (RING finger protein 133) (enzyme, UniProt Q8WVZ7 1-376, looked up)
chain: MHLLKVGTWRNNTASSWLMKFSVLWLVSQNCCRASVVWMAYMNISFHVGNHVLSELGETGVFGRSSTLKRVAGVIVPPEGKIQNACNPNTIFSRSKYSETWLALIERGGCTFTQKIKVATEKGASGVIIYNVPGTGNQVFPMFHQAFEDVVVVMIGNLKGTEIFHLIKKGVLITAVVEVGRKHIIWMNHYLVSFVIVTTATLAYFIFYHIHRLCLARIQNRRWQRLTTDLQNTFGQLQLRVVKEGDEEINPNGDSCVICFERYKPNDIVRILTCKHFFHKNCIDPWILPHGTCPICKCDILKVLGIQVVVENGTEPLQVLMSNELPETLSPSEEETNNEVSPAGTSDKVIHVEENPTSQNNDIQPHSVVEDVHPSP
notes: also called human RNF133-WT; RNF133 wild-type; source: HEK293 cells, transfected (pCAG1.1, Lipofectamine 3000), in lysate; not shown: FLAG, C-terminal, kept
Question: With B1 as the molecule, how does the “IP:input ratio (band intensity)” value (human HA-UBE2J1; partners not purified) read?
Answer: The value was 1.74.

B2: mouse RNF133-FLAG (RING finger protein 133) (enzyme, UniProt Q14B02 1-382, looked up)
chain: MNPLQTSTWQNQAPSFWLLRFSFIWLVSQKCCTASAVWTAYMNISFHVGNRMLSELGETGVFGRSSILKRVAGVVVPPEGKIQNACDPNTTFILPRNKEPWIALIERGGCAFTQKIKVASEHGARGVIIYNFPGTGNQVFPMSHQAFEDIVVVMIGNIKGMEILHLIRKGVHVTVMVEVGRKHVIWLNHYFVSFMIVTTATLAYFTFYHIRRLWVARIENRRWKRLTRELKKAFGQLQVRVLKEGDEEVNPNADSCVICFEAYKPNEIVRILTCKHFFHKNCIDPWILAHGTCPMCKCDILKALGIQMDIEDGTDSLQVLMSNELPGTLSPVEEETNYELPPARTSSKVTHVQEHPTSSANAGSQPPEAEETSHPSHGQQVL
notes: also called mouse RNF133-WT; pCAG-mouseRnf133; source: HEK293 cells, transfected (pCAG1.1, Lipofectamine 3000), in lysate; not shown: FLAG, C-terminal, kept
Question: How did the “IP:input ratio (band intensity)” value (mouse HA-UBE2J1) turn out when B2 was run?
Answer: Its value is 3.95.

Reference: paper PMC9277888, “The testis-specific E3 ubiquitin ligase RNF133 is required for fecundity in mice” (BMC Biology, 2022)
